This note sets out measurements from PMC3347997, “Identification of basepairs within Tn5 termini that are critical sfor H-NS binding to the transpososome and regulation of Tn5 transposition”.

Data set [1] addresses H-NS;Tn5 transposase (Escherichia coli;Tn5) (UniProt P0ACF8+Q46731). Kind of data set: EMSA. The note with it: 2 nM 32P-DNA, 200 nM transposase (400 nM for ME 8/9), H-NS normally 23-849 nM added simultaneously, no divalent metal, 30 min 37 C, 5% native PAGE; buffer …. A general note: A gel shift assay detects complexes by their altered migration in electrophoresis.
The next data set has as its target T1, H-NS (Escherichia coli, UniProt P0ACF8 1-137).
T1 sequence: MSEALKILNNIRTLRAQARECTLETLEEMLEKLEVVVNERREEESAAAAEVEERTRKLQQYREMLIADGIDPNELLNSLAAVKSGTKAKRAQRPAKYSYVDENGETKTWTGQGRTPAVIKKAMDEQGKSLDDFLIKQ
Kind of data set: EMSA; no appreciable H-NS binding to OE DNA not associated with transposase; no divalent metal; 2 nM 32P-DNA, 200 nM transposase (400 nM for ME 8/9), H-NS normally 23-849 nM added simultaneously, no divalent metal, 30 min 37 C, 5% native PAGE; buffer, salt and pH not given (cited). To be noted: protein: recombinant; chain copies: 2; label: 5' 32P; as printed: 3 nt 5' overhang on strand 2; described as 53 bp duplex; two copies per transpososome.

H-NS;Tn5 transposase (Escherichia coli;Tn5), sequence (Q46731 whole entry, chain 2 of 2, one chain of several): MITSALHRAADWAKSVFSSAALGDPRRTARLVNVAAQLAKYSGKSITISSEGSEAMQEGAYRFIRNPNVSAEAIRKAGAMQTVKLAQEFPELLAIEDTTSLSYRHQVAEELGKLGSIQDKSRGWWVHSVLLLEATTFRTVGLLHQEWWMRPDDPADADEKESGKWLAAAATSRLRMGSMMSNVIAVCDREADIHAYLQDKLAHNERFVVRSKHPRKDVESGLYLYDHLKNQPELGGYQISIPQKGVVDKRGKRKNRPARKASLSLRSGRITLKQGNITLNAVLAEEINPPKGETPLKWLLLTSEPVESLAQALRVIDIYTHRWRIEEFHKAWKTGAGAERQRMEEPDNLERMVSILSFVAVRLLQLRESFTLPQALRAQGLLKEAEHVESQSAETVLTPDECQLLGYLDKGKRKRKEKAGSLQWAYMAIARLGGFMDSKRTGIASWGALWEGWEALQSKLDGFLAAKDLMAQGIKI

A word on the Kd: it is the equilibrium constant for the complex coming apart. A low value points to higher affinity. “CCCTGCAGGTCGACTGACTCTTATACACAAGTTGAGTGAGTGAGCATGCA / ACATGCATGCTCACTCACTCAACTTGTGTATAAGAGTCAGTCGACCTGCAGGG [OE 53-bp transposon end]” returned a Kd in data set [1] of 232 nM.
Same read-out and setting: under “CCCTGCAGGTCGACTGTCTCTTATACACATCTTGAGTGAGTGAGCATGCA / ACATGCATGCTCACTCACTCAAGATGTGTATAAGAGACAGTCGACCTGCAGGG [WT ME 53-bp transposon end]” stands 51 nM.

B1: OE 53-bp transposon end (dsDNA)
DNA 1: CCCTGCAGGTCGACTGACTCTTATACACAAGTTGAGTGAGTGAGCATGCA
DNA 2: ACATGCATGCTCACTCACTCAACTTGTGTATAAGAGTCAGTCGACCTGCAGGG
Regarding B1, the binding result in the data set with H-NS is “no binding”.
